Experimental data as given in patent US20160264649A1.

Columns and labels:
Assay in all cases: cell-based or functional assay
[1] = molecular target: HIV-1 Env of isolate MGRM-F1-020 (subtype F) (HIV-1)
[2] = molecular target: HIV-1 Env of pseudovirus isolate MGRM-G-015 (subtype G) (HIV-1)
[3] = molecular target: HIV-1 Env of isolate MGRM-D-002 (subtype D) (HIV-1)
[4] = molecular target: HIV-1 Env of pseudovirus isolate MGRM-G-013 (subtype G) (HIV-1)
[5] = molecular target: HIV-1 Env of isolate MGRM-F1-004 (subtype F) (HIV-1)
[6] = molecular target: HIV-1 Env of pseudovirus isolate MGRM-G-014 (subtype G) (HIV-1)
[7] = molecular target: HIV-1 Env of isolate MGRM-D-018 (subtype D) (HIV-1)
[8] = molecular target: HIV-1 Env of pseudovirus isolate MGRM-G-024 (subtype G) (HIV-1)
[9] = molecular target: HIV-1 Env of pseudovirus isolate MGRM-G-006 (subtype G) (HIV-1)
[10] = molecular target: HIV-1 Env of pseudovirus isolate MGRM-G-001 (subtype G) (HIV-1)
[11] = molecular target: HIV-1 Env of isolate MGRM-F1-022 (subtype F) (HIV-1)
[12] = molecular target: HIV-1 Env of isolate MGRM-F1-018 (subtype F) (HIV-1)
[13] = molecular target: HIV-1 Env of isolate MGRM-D-028 (subtype D) (HIV-1)
[14] = molecular target: HIV-1 Env of isolate MGRM-F1-010 (subtype F) (HIV-1)
[15] = molecular target: HIV-1 Env of isolate MGRM-F1-014 (subtype F) (HIV-1)
[16] = molecular target: HIV-1 Env of isolate MGRM-D-001 (subtype D) (HIV-1)
[17] = molecular target: HIV-1 Env of pseudovirus isolate MGRM-G-009 (subtype G) (HIV-1)
[18] = molecular target: HIV-1 Env of isolate MGRM-F1-021 (subtype F) (HIV-1)
[19] = molecular target: HIV-1 Env of isolate MGRM-D-003 (subtype D) (HIV-1)
[20] = molecular target: HIV-1 Env of isolate MGRM-F1-017 (subtype F) (HIV-1)
[21] = molecular target: HIV-1 Env of isolate 92UG024 (subtype D) (HIV-1)
[22] = molecular target: HIV-1 Env of isolate MGRM-F1-013 (subtype F) (HIV-1)
[23] = molecular target: HIV-1 Env of isolate MGRM-D-016 (subtype D) (HIV-1)
[24] = molecular target: HIV-1 Env of pseudovirus isolate MGRM-G-011 (subtype G) (HIV-1)
[25] = molecular target: HIV-1 Env of isolate MGRM-D-011 (subtype D) (HIV-1)
[26] = molecular target: HIV-1 Env of pseudovirus isolate MGRM-G-027 (subtype G) (HIV-1)
[27] = molecular target: HIV-1 Env of isolate MGRM-D-029 (subtype D) (HIV-1)
[28] = molecular target: HIV-1 Env of isolate MGRM-F1-008 (subtype F) (HIV-1)
[29] = molecular target: HIV-1 Env of isolate 92UG114 (subtype D) (HIV-1)
[30] = molecular target: HIV-1 Env of pseudovirus isolate MGRM-G-004 (subtype G) (HIV-1)
[31] = molecular target: HIV-1 Env of pseudovirus isolate MGRM-G-025 (subtype G) (HIV-1)
[32] = molecular target: HIV-1 Env of pseudovirus isolate MGRM-G-017 (subtype G) (HIV-1)
[33] = molecular target: HIV-1 Env of isolate MGRM-D-012 (subtype D) (HIV-1)
[34] = molecular target: HIV-1 Env of isolate 98CN006 (subtype CRF08_BC) (HIV-1)
[35] = molecular target: HIV-1 Env of isolate MGRM-D-014 (subtype D) (HIV-1)
[36] = molecular target: HIV-1 Env of isolate MGRM-F1-006 (subtype F) (HIV-1)
[37] = molecular target: HIV-1 Env of isolate MGRM-D-024 (subtype D) (HIV-1)
[38] = molecular target: HIV-1 Env of isolate MGRM-F1-016 (subtype F) (HIV-1)
[39] = molecular target: HIV-1 Env of isolate MGRM-F1-012 (subtype F) (HIV-1)
[40] = molecular target: HIV-1 Env of isolate MGRM-F1-023 (subtype F) (HIV-1)
[41] = molecular target: HIV-1 Env of isolate 92UG005 (subtype D) (HIV-1)
[42] = molecular target: HIV-1 Env of pseudovirus isolate MGRM-G-028 (subtype G) (HIV-1)
[43] = molecular target: HIV-1 Env of isolate 92UG046 (subtype D) (HIV-1)
[44] = molecular target: HIV-1 Env of pseudovirus isolate MGRM-G-016 (subtype G) (HIV-1)
[45] = molecular target: HIV-1 Env of isolate 98CN009 (subtype CRF07_BC) (HIV-1)
[46] = molecular target: HIV-1 Env of pseudovirus isolate MGRM-G-019 (subtype G) (HIV-1)
[47] = molecular target: HIV-1 Env of isolate MGRM-D-019 (subtype D) (HIV-1)
[48] = molecular target: HIV-1 Env of isolate MGRM-D-008 (subtype D) (HIV-1)
[49] = molecular target: HIV-1 Env of isolate MGRM-D-013 (subtype D) (HIV-1)
[50] = molecular target: HIV-1 Env of isolate MGRM-D-026 (subtype D) (HIV-1)
[51] = molecular target: envelope of aMLV pseudovirus (negative control)
[52] = molecular target: HIV-1 Env of isolate MGRM-D-005 (subtype D) (HIV-1)
[53] = molecular target: HIV-1 Env of isolate MGRM-D-021 (subtype D) (HIV-1)
[54] = molecular target: HIV-1 Env of isolate MGRM-F1-015 (subtype F) (HIV-1)
[55] = molecular target: HIV-1 Env of isolate MGRM-D-022 (subtype D) (HIV-1)
[56] = molecular target: HIV-1 Env of isolate MGRM-D-004 (subtype D) (HIV-1)
[57] = molecular target: HIV-1 Env of isolate MGRM-D-020 (subtype D) (HIV-1)
[58] = molecular target: HIV-1 Env of isolate 92UG001 (subtype D) (HIV-1)

B1: PGT-136 (antibody, V domains shown)
VH: QLQLQESGPGLVKPSETLSLTCTVSGGSMRGTDWGENDFHYGWIRQSSAKGLEWIGSIHWRGRTTHYKTSFRSRATLSIDTSNNRFSLTFSFVTAADTAVYYCARHKYHDIFRVVPVAGWFDPWGQGLLVTVSS
VL: EIVMTQSPPTLSVSPGETATLSCRASQNVKNNLAWYQLKPGQAPRLLIFDASSRAGGIPDRFSGSGYGTDFTLTVNSVQSEDFGDYFCQQYEEWPRTFGQGTKVDIK
**Q.** Which results are given for B1?
**A.** IC50 (neutralization) [1]: 9.31 µg/mL; IC50 [2]: > 50 µg/mL; IC50 (neutralization) [3]: > 50 µg/mL; IC50 [4]: > 50 µg/mL; IC50 (neutralization) [5]: > 50 µg/mL; IC50 [6]: > 50 µg/mL; IC50 (neutralization) [7]: > 50 µg/mL; IC50 [8]: 0.152 µg/mL; IC50 [9]: > 50 µg/mL; IC50 [10]: 8.11 µg/mL; IC50 (neutralization) [11]: 2.42 µg/mL; IC50 (neutralization) [12]: > 50 µg/mL; IC50 (neutralization) [13]: > 50 µg/mL; IC50 (neutralization) [14]: > 50 µg/mL; IC50 (neutralization) [15]: > 50 µg/mL; IC50 (neutralization) [16]: > 50 µg/mL; IC50 [17]: > 50 µg/mL; IC50 (neutralization) [18]: > 50 µg/mL; IC50 (neutralization) [19]: > 50 µg/mL; IC50 (neutralization) [20]: > 50 µg/mL; IC50 (neutralization) [21]: 0.052 µg/mL; IC50 (neutralization) [22]: > 50 µg/mL; IC50 (neutralization) [23]: > 50 µg/mL; IC50 [24]: > 50 µg/mL; IC50 (neutralization) [25]: > 50 µg/mL; IC50 [26]: 45.2 µg/mL; IC50 (neutralization) [27]: > 50 µg/mL; IC50 (neutralization) [28]: > 50 µg/mL; IC50 (neutralization) [29]: > 50 µg/mL; IC50 [30]: > 50 µg/mL; IC50 [31]: > 50 µg/mL; IC50 [32]: > 50 µg/mL; IC50 (neutralization) [33]: > 50 µg/mL; IC50 (neutralization) [34]: 0.406 µg/mL; IC50 (neutralization) [35]: > 50 µg/mL; IC50 (neutralization) [36]: > 50 µg/mL; IC50 (neutralization) [37]: > 50 µg/mL; IC50 (neutralization) [38]: > 50 µg/mL; IC50 (neutralization) [39]: > 50 µg/mL; IC50 (neutralization) [40]: > 50 µg/mL; IC50 (neutralization) [41]: > 50 µg/mL; IC50 [42]: > 50 µg/mL; IC50 (neutralization) [43]: > 50 µg/mL; IC50 [44]: > 50 µg/mL; IC50 (neutralization) [45]: 0.428 µg/mL; IC50 [46]: 44.3 µg/mL; IC50 (neutralization) [47]: > 50 µg/mL; IC50 (neutralization) [48]: > 50 µg/mL; IC50 (neutralization) [49]: > 50 µg/mL; IC50 (neutralization) [50]: > 50 µg/mL; IC50 [51]: > 50 µg/mL; IC50 (neutralization) [52]: > 50 µg/mL; IC50 (neutralization) [53]: > 50 µg/mL; IC50 (neutralization) [54]: > 50 µg/mL; IC50 (neutralization) [55]: > 50 µg/mL; IC50 (neutralization) [56]: > 50 µg/mL; IC50 (neutralization) [57]: > 50 µg/mL; IC50 (neutralization) [58]: > 50 µg/mL
